Assay results: paper doi:10.1101/2022.06.09.495453

Target: SHLD2^1-95 (human)
Experiment: SEC-MALS

Sequence of REV7 of the SHLD3-SHLD2^1-95-REV7 ternary complex (Shieldin) (Q9UI95 whole entry, one chain of several): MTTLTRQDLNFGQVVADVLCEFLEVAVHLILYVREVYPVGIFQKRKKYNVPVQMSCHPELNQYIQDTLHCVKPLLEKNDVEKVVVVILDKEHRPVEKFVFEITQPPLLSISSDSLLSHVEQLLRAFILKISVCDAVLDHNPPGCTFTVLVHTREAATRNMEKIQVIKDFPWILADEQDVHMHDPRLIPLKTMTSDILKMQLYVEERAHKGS

stoichiometry N (REV7 per SHLD2^1-95): 2
Substance: REV7 of the SHLD3-SHLD2^1-95-REV7 ternary complex (Shieldin) (from UniProt Q9UI95 1-211) (natural protein)
